Results reported in the nanobody polyreactivity screen of Harvey et al. (2022).

Assay: yeast display, Sf9 membrane polyspecificity reagent, FACS + sequencing; frameworks hold sequencing errors
Procedure, shortened: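 Nanobodies came from a synthetic yeast display library in Saccharomyces cerevisiae BJ5465, induced with galactose for 36–48 hours and stained for 1 hour at 4 °C with 10% biotinylated, detergent-solubilized Sf9 membrane reagent. Cells were enriched on streptavidin microbeads and then FACS-sorted, with low and high (top ~1%) gates set on anti-HA fluorescence for expression and streptavidin fluorescence for reagent binding. Each polyreactivity label reflects the gate a clone came from. Genes were amplified by colony PCR, sequenced by MiSeq 2 × 250 and filtered by CDR length.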

Sequence	polyreactivity (PSR sort gate)
QVQLVESRGGLVQAGGSLRLSCAASGGIFINYAMGWYRQAPGKERELVAAISRRGGSTYYADSVKGRFTISRDNAKNTVYLQMNSLKPEDTAVYYCNAVYLRGGMDYWGQGTQVTVSS	high polyreactivity
QVQLVESGGGLVQAGGSLRLSCAASGRIFVIYAMGWYRQAPGKERELVAAISYSGGSTYYADSVKGRFTISRDNAKNTVYLQMNSLKPEDTAVYYCAARVRGDYGHKYYQYDYWGQGTQVTVSS	low polyreactivity
QVQLVESGVGLVQAGGSLRLSCAASGSIFGLYAMGCYRQAPGKERELVAAISTSDTSTYYADSVKGRFTISRDNAKNTVYLQMTSLKQEDTAVYYCAADTYDNFDYSGQGTQVTVSS	low polyreactivity
QVQLVESGGGLVQAGGSLRLSCAASGRIFYYNTMGWYRQAPGKERELVAAISRSGGSTYYADSVKGRFTISRDNAKNTVYLQMNSLKPEDTAVYYCAAVTHRYGNSEFDYWGLGTQVTVSS	high polyreactivity
QVQLVESGGGLVQAGGSLRLSCAASGRIFQANAMGWYRQAPGKERELVAAISWSGGSTYYADSVKGRFTISRDNAKNTVYLQMNSLKPEDTAVYYCAKDYVHQYGVYKVWANNYNYWGQGTQVTVSS	low polyreactivity
QVQLVESGGGLVQAGGSLRLSCAASGSTFGNAMGWYSQAPGKERELVAAISGSGSDTYYADSVKGRFTISRDNAKNPVYLQMNSLKPEDTAVYSWATETHRLDKGTDYGYDYWGQGTQVTVSS	low polyreactivity
QVQLVESGGGLVQAGGSLRLSSAASGITFSKNAMGRYRQAPGKERELVAAISNSGGSTYYADSVKGRFTISRDNAKNTVYLQMNSVNPEDTAVYYCASDGGYAYGYNHWGQGTQVTVSS	low polyreactivity
QVQLVESGGGLVQAGGSLRLSCAASGRIFVVYAMGWYRQAPGKERELVAAITYGGGSTHYADSVKGRFTISRDNAKNTVYLQINSLIPEDTAVYYCAADLFYHSYGYEYWGQGTQVTVSS	low polyreactivity
QVQLVESGGGLVQAGGSLRLSCAASGFTFRGYAMGWYRQAPGKERELVASITYRGGSTYYADSVKGRFTISRDNAKNTVYLQMNSLKPEDTAVSYCNAGFGGRRRQDAFIGTSIYDYWGQCTQVTVSS	low polyreactivity
QVQLVESGGGLVQAGGSLRLSCAASGRIFRFYAMGWYRQAPGKERELVAAISWRGGRTYYADSVKGRFTISRDNAKNTVYLQMNSLKPEDTAVYYCNADKYETSGWKYDSWGQGTQVTVSS	low polyreactivity
QVQLVESGGGLVQAGVSLRLSCAASGKTVYSYAMGWYRQAPGKKRQLVAGISYIGGRTYYADSVKGRFTISRDNAKNTFYLQMNSLNPEDTAFYYCAAVYWYGRRKYYSWGQGTQVTVSS	high polyreactivity
QVQLVESGGCLVQAGGSLRLICAASGRIVKYAMGWYRQAPGKERELVAAISGSGGTTYYADSVKGRFTISRDNAKNTVYLQMNSLKPEDTAVYYCAASRPRPPSSRRMDYWGQGTQVTVSS	high polyreactivity
QVHLVDSGGGLVQARGSLRLSCAASGFTIGPYAMGWYRQAPGKERELVAAITIRGGSTYADSVKGRFTISRDNAKNTVYLQMNSLKPEDTAVYYCATVRALEYNYWGQGTQVTVSS	low polyreactivity
QVQLVESGGGLVQAGGSLRLSCAASGSIFNYYDMGWYRQAPGKEREFVARITIGGSSTNYADSVKGRFTISRDNAKNTVYLQMNSLKPEDTAVYYCAASQYGIFFSQMDYWGQGTQVTVSS	low polyreactivity
QVQLVESGGGLVQAGGSLRLSCADSGSIFDFNAMGWYRQAPGKERELVAAITWSGGSTYYADSVKGRFTLSRDNAKNTVYLQMNSLKPEDTAVYYCAADSLYDDFYYWGQGTQVTVSS	low polyreactivity
QVQLVQSGGGLVEAGGSLRLSCAASGSNFWANAMGWYRQAPGKERELVAGITLNGGLTYYADSVKGRFTISRDNAKNTVYLQMYSLKPEETEVYFCAAAYPTDRHYYWGLGTQVTVSS	low polyreactivity
QVQLVESGGGLVQAGGSLRLSCAASGGIFFYNAMGWYRQAPGKERELVAAISTGGGRTYYADSVKGRFTISRDNAKNTVYLQMNSLKPEDTAVYYCAKDKQDYEYWGQGTQVTVSS	low polyreactivity
